From a protein production outcome set (Wang et al. 2014)

Test: label from the status in PepcDB records

Sequence | protein production
MDSGPLWDANPTPRGTLSAPNATTPWLGRDEELAKVEIGVLATVLVLATGGNLAVLLTLGQLGRKRSRMHLFVLHLALTDLAVALFQVLPQLLWDITYRFQGPDLLCRAVKYLQVLSMFASTYMLLAMTLDRYLAVCHPLRSLQQPGQSTYLLIAAPWLLAAIFSLPQVFIFSLREVIQGSGVLDCWADFGFPWGPRAYLTWTTLAIFVLPVTMLTACYSLICHEICKNLKVKTQAWRVGGGGWRTWDRPSPSTLAATTRGLPSRVSSINTISRAKIRTVKMTFVIVLAYIACWAPFFSVQMWSVWDKNAPDEDSTNVAFTISMLLGNLNSCCNPWIYMGFNSHLLPRPLRHLACCGGPQPRMRRRLSDGSLSSRHTTLLTRSSCPATLSLSLSLTLSGRPRPEESPRDLELADGEGTAETIIF | failed
MFQRKTLQRRNLKGLNLNLHPDVGNNGQLQEKTETHQGQSRIEGHVMSNINAIQNNSNLFLRRGIKKKLTLDAFGDDQAISKPNTVVIQQPQNEPVLVLSSLSQSPCVSSSSSLSTPCIIDAYSNNFGLSPSSTNSTPSTIQGLSNIATPVENEHSISLPPLEESLSPAAADLKDTLSGTSNGNYIQLQDLVQLGKIGAGNSGTVVKALHVPDSKIVAKKTIPVEQNNSTIINQLVRELSIVKNVKPHENIITFYGAYYNQHINNEIIILMEYSDCGSLDKILSVYKRFVQRGTVSSKKTWFNELTISKIAYGVLNGLDHLYRQYKIIHRDIKPSNVLINSKGQIKLCDFGVSKKLINSIADTFVGTSTYMSPERIQGNVYSIKGDVWSLGLMIIELVTGEFPLGGHNDTPDGILDLLQRIVNEPSPRLPKDRIYSKEMTDFVNRCCIKNERERSSIHELLHHDLIMKYVSPSKDDKFRHWCRKIKSKIKEDKRIKREALDRAKLEKKQSERSTH | failed
MRRELLLEKIETYKAIMPWYVLDYYQSKLAVPYSFTTLYEYLKEYKRFFDWLMDADLTQAPKIADIDLSTLEHLTKKDLEAFVLYLRERPSLNTYSTKEGLSQTTINRTLSALSSLYKYLTEEVENDQGEPYFYRNVMKKVSTKKKKETLASRAENIKQKLFLGDETLAFLDYVDKEYEQKLSNRAKSSFRKNKE | failed
GGTPSPQLTSRQEIAVVPKVFDASTMFLEAQMASIQILEQENKKIGYVHIWSNAADPYQQELQNELIYGRLRNADGLILDLRDGWGGGDISYLNIFTAKQSPSVTHVQRNGRRYTYNYQWKKPVVMLVNEGSRSSKEILAFNFQQNQIGPVLGTKTTGAVVAGRPYIMQDGSLLYVAVADVFLNGNQRLEGKGVTPDINVPFSLEYAQGVDPQKQTAIETLLKAL | failed
MRVALAGRPQEALDVALPAAELPEHLRWRLRSWQADAQEALGQSAEATLLYAEAAHLAAGLNRAVMLQEQAALLLQQGDFEEARQVLERARTLYTGPRPGTDPNDEGLNLATWHYLMAQVRLNLGQPEAAQDDIREAARLEGLSGDPSYGVALVQGQVLSHLGQLEEALEAFGQALARATDPDRPYANHELGVALLDLDRPLEAREKLEEVLLVPDYPFHPEVLADIAECDYRLGRLPEAQLAAEQALNQGAVVPASVVLGNVALDYYHLDDALDHYERVVREAVHGSRDWVLGHQMAADVMAQQGFPDPAAAYAHAQQALEHTPESDDWYVTLQDHLSRAQALMGSAGGRTLN | failed
MAQKDRNTRIAQKAFEMVDKVYGKSPNLTTKPYDPKDESPSRFTQSAYKYGGPKIYTVREATSTYSYGRAIYMYAPESTIKEPVVSHPTEHIQYYGGTRPFVANPNRFERPKGRVINCDEAVQLYGGVLIKEFRK | failed
MARIHQLDEHLSNMIAAGEVVERPSGIVKELVENSIDAKAKHIEIQILQGGIDCITIIDDGCGMDAQDATLAFERHATSKIQAVDDLWKISTMGFRGEALPSIASVSQVTLRTNDGIDSSEVIIYYGTLKSARPCGTPKGTMLEVRNLFQKTPARFKHLKSPQYEFSLISDVVQKFAISHPNIGFELSHDGRSVFKTKGNGNLREVLMQIYGRDGAKTAIELHGQDLDYTIRGYALQPQFQRATKYYVLLYINGRMIRNYHLQKAVMDAYAPYMPKDRYPIAVINMEMDAQLVDVNVHPSKWEIRLSKEKQLEKLLYQTIKAALMQDMEVPNIQARKENKKEKIEIQELQFTYPRDQEVKKLHTEVNDSFVHYNGKPKQTITEESKVQVDKVEPQEAPVEAEKQESVDKKQELSESQSSDTQAPIKDQVIEEVSTTKQAETLFKDIVPIQEVVMKAEQEPASESINPSLPQLHVIGQFHNSYILAEGEKGLYIIDQHAAQERYHYEMIQKQILSGVKDTQPLLIPITVETTISAVSRIDDLNALLEQVGIHFEVFGNTTLLCRELPIWLKDTKEEAFLQDMIDLWQKDDEISLDKLRKHTIATMACHSSIRFHRSLTMEEMKQVILDLGKCEQPFHCPHGRPTLICYEDKDLIHDFERG | failed
MPNQPVTVESFMPVEGKLREKVIVKGSNFGTDKSKVKVYFVDEAAERLSTVIGIDNNTLYCLAPRQLPGGNRIKVIVDGKEVTTDGTFKYEQAQNVSTISGSASKDGNDDGDLASAKFKYMWGIAAVGNNTVLAYQRDDPRVRLISVDDNKVTTVHPGFKGGKPAVTKDKQRVYSIGWEGTHTVYVYMKASGWAPTRIGQLGSTFSGKIGAVALDETEEWLYFVDSNKNFGRFNVKTQEVTLIKQLELSGSLGTNPGPYLIYYFVDSNFYMSDQNLSSVYKITPDGECEWFCGSATQKTVQDGLREEALFAQPNGMTVDEDGNFYIVDGFKGYCLRKLDILDGYVSTVAGQVDVASQIDGTPLEATFNYPYDICYDGEGGYWIAEAWGKAIRKYAVELEHHHHHH | not failed
MKKFYFLILGIVLCGMVAQAQNSYEGHIGFGQHHVVRKGGELNVEVSLDLGAVKLAAQQMIVLTPVLRSTEGEEQQQLAPVVIAGPRRYRVLKRSLAFGTDNFEMSPMLVEKRKSGTPQTVNLHFGLPYHEWMRRAELILREEVTGCADCPVSQGDHTVITSVFDEQFTPRYELSYVTPPVEPLKQRSETHTAYLNFEVDKYVLLRNYKNNANVLADVDRIVNEIQNDSNLTVTEFRVTGYASPEGNYSRNMKLSENRALAFVGYLQNHGGVDESLLTVDWKGEDWSGLRREVAASSLIDKGAILAVIDGHTDFATRKNRLQALNGGTTYRMLLRDYYPPLRRNEYTISYVARAFNVDEAKQLIKTKPQYLSLNEMFLVANTYPKDSGEFKEVFDIAARIYPDDPVARLNTAALELENGAIDAAIVRLQKSDMPEAWNNLGIAYILKQDYKKGGEYLEKAIDAGIQAAAYNMGQLAAWLKTQE | failed
AIAKETEQVSEAPHGLEGAWLDLTNRVRVSGDTVEACSAFSIGPPRCRWLLQATDRGVNCAALDHYVPHICGTHTETVYHIAHHRYIKRAVCEIPFFRFHKARIQVCTAKIACTEQVLPSADTDYPCLEPNDLIVGPSALNRAPRYTRAQDSTIEALILIVVGPDGTSDWRDGKLDDRPPYLTPAAIESLATRYPNMRHLLTNLPSVDRRRDGGLVRSHRAFFATDFAGDGTPSESPQKTITELLRVPPDWQLYDDAEGVVCISLAPIEGLDAIPSSVYFKSH | failed
MENFVFHNPTKIVFGRGTIPKIGEEIKNAGIRKVLFLYGGGSIKKNGVYDQVVDSLKKHGIEWVEVSGVKPNPVLSKVHEAVEVAKKEKVEAVLGVGGGSVVDSAKAVAAGALYEGDIWDAFIGKYQIEKALPIFDVLTISATGTEMNGNAVITNEKTKEKYGVSSKALYPKVSIIDPSVQFTLPKEQTVYGAVDAISHILEYYFDGSSPEISNEIAEGTIRTIMKMTERLIEKPDDYEARANLAWSATIALNGTMAVGRRGGEWACHRIEHSLSALYDIAHGAGLAIVFPAWMKYVYRKNPAQFERFAKKIFGFEGEGEELILKGIEAFKNWLKKVGAPVSLKDAGIPEEDIDKIVDNVMLLVEKNLKPKGASLGRIMVLEREDVREILKLAAK | not failed
MSIDIQLFYLPLHTNNPLILNKQMKLRNVSAGIVLCLTMVSCIQDEALNVEAAIDGCSGTNIQLSTINPSSKTASIYVSKSTDLSALEIKFTLPDGASIEPVNAIANDAPPKYDFSTSQIPITPEQTLEQYQRKFRVTSESETTEAVYTITVIKSELPTNFHFENLVDGSSDYHELYEFNQQQGETLQWASGNPGFKLTGMAKSPFDYPTLQTEGYIGKGIRLETKSTGDFGEKVKMPIAAGNLFIGTFIVKDALRDAKAATKFGFPFFKHPKTLKGYYKFQPGTVYISGTDENRKPIIDPSMEGKDKGDIYAVLYEADDVEDFLDGYNSLNSNKIIALARIPSIEKTSEWKQFELPFEYKKAIDESALKEGKYKLAVVFSSSINGAEFKGSVGSTLWIDEVTIQCKEDNE | failed
DGRIFKMFIEHLEFEKGLDAFSQSWIKALEDSEFLAILRLLFHHIVTSESAHEFAANGIDRLYKMVESQFGSGGDKELEWLIGRSLIQMSK | not failed
